In a protein production outcome set (Wang et al. 2014):

Test: label from the status in PepcDB records
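Also: failed if final PepcDB status was selected cloned or expressed and not failed if soluble or beyond.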

Row | Sequence | protein production
1 | MAQQNAEHIADWRGQSGERWAAYQARLDAMMAPFGQAAIEAAAPTTGERVLDVGCGAGASSRDLAARVGAEGHVLGVDISEPLIERARALAPQDMSVVFRVTDASRAELPDGAFDILFSRFGVMFFNDPTGAFAHMRRALKPGGRAAFVCWRGVTENDWMRLPMGAMKGILPSMTPPGPEAPGPFSFGDQERVERILTKAGFTDIAIEPFDASVSFGEGATRDAALDDAVNMTLEVGPLSRVLADQPDDIRDRASVAVRAALSGCPGERSVMINGATWIVTARNPAS | failed
2 | MAQQQGMDSALFERRLRPVYDNLEVGNNRKALQESEKLLRKHPNLLCARALKGLSLLRLGRYDESHGCLQTVAEEKPTDDSTLQVLSFCYREMEQLDKIVELYQHAVKQNPGNEELLAHLFISHVRVEDYKAQQAVALQLYKAQPKNAYYFWSVISVVFQGIRGPESALPEKRKIYLGLAQRMVDKHIKEGKMETEQEAFLYLHILKLQNKYQEAWEFLTGELCAKLYPGAPVSMKFELLKELGNWRELNELLQQLLDADRDRWDFYKEYIQSSFELLKLTPQGVENGDKDSLARCQEFLQRIIDSSERKKRGPYLARLELHQRMRAEQLPAEKLIGDFDEMVIEYFRLFGDKSCCTHDIALFLPSISMNQRQALASKLLLESGVTSTSLPKNKEQLQKHLCALQISRMCGSHMDLPADHLLAFYTALKLHYEHGRTTFGKKLLATEMGPSDAYALLAANVMYDLSRRENKSDHLFEALCLLQYVLRNSTSNFHVKLLSLKIYHLFGCQVGAQEMYEYLDIKQIQLDSMGYVHCQLLALGGRFSGNRNVYDATLKFFTNSYKERLEYIALTYRFCTFSKMEEFMNFKERLTNSLQYVACSVEAQICDLVSCYGNITQNLSAYVAMSIEPAEDRIAWHELSDNRDLGAIIRWDPLHEVDAAEERRESFDQEVEVLQVRSLMLRLFASFIDLYHGAGLKDSPAGAETATLELLRESWTGLFQRLRVMNYKPLAQKFLVNLLPTRLHLLLDMPYERFFDDLAQLVLDLQSGSAKLAEQCKRVGDNVIATMELCVQTINESNESNGIDGLWKRRGQQQKVAASLEMLSLYAFLLSVLNDKLQVSSKTKTKKKPVENKVDGPQPISEKERSQMLQELMRQLKHKFEACDTAIRSWKAPVLPRDLSSFMSDMSLKPEVEATLIGDVSATFKDSHELMVTELRNLLKDKIRMVAK | failed
3 | MAQQTPLYEQHTLCGARMVDFHGWMMPLHYGSQIDEHHAVRTDAGMFDVSHMTIVDLRGSRTREFLRYLLANDVAKLTKSGKALYSGMLNASGGVIDDLIVYYFTEDFFRLVVNSATREKDLSWITQHAEPFGIEITVRDDLSMIAVQGPNAQAKAATLFNDAQRQAVEGMKPFFGVQAGDLFIATTGYTGEAGYEIALPNEKAADFWRALVEAGVKPCGLGARDTLRLEAGMNLYGQEMDETISPLAANMGWTIAWEPADRDFIGREALEVQREHGTEKLVGLVMTEKGVLRNELPVRFTDAQGNQHEGIITSGTFSPTLGYSIALARVPEGIGETAIVQIRNREMPVKVTKPVFVRNGKAVA | not failed
4 | MAQRSILVGQIWHEGHSFNPILTREKDFLFLRGEAVLEEARASSTALSGIVKTAEALGYRCVPSISARARPGGAIEQKVFDNIVDEFVQAARMQDFDAICLDLHGATLAEHTLDTEGYLLSRLREVVGNDIMISLALDLHAYLTPQMVEQATIITSFRTTPHADIEETGVRAMTLLDSLSNETRPPRAIYSLIPFLTRGNDETWSGPLAEIGAAADRWRARSDVVDLSIFNVHPFLDVPGYGQVVLAYDNGSGAAIDACRDLSDMLWKARDEFQEQLMSVDKALEIARTSRQLLALGDQGDRVMGAGPGDSPEIARVALEHFPGLKVAVPVYDPQAVRTAREAGENATVRMAVGGAFTHSVAPLERDWTVRKLCRARFTNIGPYMAGTEADFGDAAVLTCDAVTVIVTTMAPNVHDPAFYEAVGVPLASQQAVVARAANHYKLSFADIARTITVDTPGLTAFKPHQFPFTQARPFYPLDIVQWSFAPLECNKVG | not failed
5 | MAQTQGTRRKVCYYYDGDVGNYYYGQGHPMKPHRIRMTHNLLLNYGLYRKMEIYRPHKANAEEMTKYHSDDYIKFLRSIRPDNMSEYSKQMQRFNVGEDCPVFDGLFEFCQLSTGGSVASAVKLNKQQTDIAVNWAGGLHHAKKSEASGFCYVNDIVLAILELLKYHQRVLYIDIDIHHGDGVEEAFYTTDRVMTVSFHKYGEYFPGTGDLRDIGAGKGKYYAVNYPLRDGIDDESYEAIFKPVMSKVMEMFQPSAVVLQCGSDSLSGDRLGCFNLTIKGHAKCVEFVKSFNLPMLMLGGGGYTIRNVARCWTYETAVALDTEIPNELPYNDYFEYFGPDFKLHISPSNMTNQNTNEYLEKIKQRLFENLRMLPH | failed
6 | MAQVPAGKNRSGQLSKQTGDAWENQARRWLEGQGLRFIAANARERGGEIDLIMRDGTVTVFIEVRYRRSARYGDAAASVTPQKQQRLLKAARLWLCRQ | failed
7 | MAQYQALYRQWRPRTFAEVVGQEHITRTLRNALRTGRLVHAYLFCGPRGTGKTSTAKILARAINCLAPREGEPCNECANCRRILAGNSLDVLEMDAASNRGIDEIRNLIEKIPLGPVEGRYKVYIIDEVHMLTQEAFNALLKTLEEPPAHAVFILATTEPRKVLPTILSRCQRFDFHPLTVQAIAGRLQEVAAANGVEIEPGALSLLSRKAAGGLRDALSLLDQILASGTRGPVTAGQVAVTLGTARLDTLLALTDALATGDGAGVLNLVDKALASGIEPRRLLEDLLDHTRNLLLLKVDPGAGSLTGLLPEEVEQVAAQARQFDHHRLLDLMERLQQGGAALRRSNQPRVILEMTLAGFLVAPGPSLEGLARRVAELEARLAALEGSAPSRTREKVATRNQGEGGRPPVAPGSRADAGGQERGNSGPLEAPGAGSPAGRARVINRSREFPQAAGRDRAGLAGPETATGLEPGSPASPGLELAVVQEHWPEVLAAARRESIQLQAFLREGEPVAIDGDTLTLAVKADFHRGMLEQPGNRQKVEKALAAVFGRPLKVVITSGKPSPPGDTGDTLTRLVNFFGADKVEIKD | failed
8 | MARGPPRALASTRSPSTHMTAISNPDSEDLHIIIAGAGRVGHRTARVLRDQGHEAYLIDKDPDIVEDARQALGATVIEGDATDPKVLAQADPERADVLAALTETGATNFAICAVVKHLTGDIRTVARIERPDQLDEEGTFFDRVVYPERAGAKSAVNQILTGDTRVFEDVGGDLDVAEVQVAPEAPAAGKQLDAAALPDQSHVVFDVTNDEVPQPSTELVPGHRYLIAAAPGVAREARRRLVG | failed
9 | MARGREAVTLLLVGWGYAPGMQTLEALDAVRRADVVYVESYTMPGSSWLYKSVVEAAGEARVVEASRRDLEERSREIVSRALDAVVAVVTAGDPMVATTHSSLAAEALEAGVAVRYIPGVSGVQAARGATMLSFYRFGGTVTLPGPWRGVTPISVARRIYLNLCAGLHTTALLDVDERGVQLSPGQGVSLLLEADREYAREAGAPALLARLPSVLVEAGAGGGHRVLYWSSLERLSTADVEGGVYSIVIPARLSGVEEWLLAAASGQRRPLEYDRSVYETVEENCKKGVYMEPV | not failed
10 | MARLIGFKMAEVHRGRIVMQLDPDQSLENTAGLLHGAIAAALLDTAMGCAISTQQPAGQGSVTMDLKLSYLRPLSVRSGTIVAEGRVVKLGRQSSYTEGFVYDGAGKLAVHATATFAMLGAGPLEHHHHHH | failed
11 | MARLIIPCRSSSLARVNLLGLLSRAPVPVRSSCLRSSANRLTQHRPFLTSEAICLRKNRFLPHSVDTHKQNSRRLICSVATESVPDKAEDSKMDAPKEIFLKNYTKPDYYFETVDLSFSLGEEKTIVSSKIKVSPRVKGSSAALVLDGHDLKLLSVKVEGKLLKEGDYQLDSRHLTLPSLPAEESFVLEIDTEIYPHKNTSLEGLYKSSGNFCTQCEAEGFRKITFYQDRPDIMAKYTCRVEGDKTLYPVLLSNGNLISQGDIEGGRHYALWEDPFKKPCYLFALVAGQLVSRDDTFTTRSGRQVSLKIWTPAEDLPKTAHAMYSLKAAMKWDEDVFGLEYDLDLFNIVAVPDFNMGAMENKSLNIFNSKLVLASPETATDADYAAILGVIGHEYFHNWTGNRVTCRDWFQLSLKEGLTVFRDQEFSSDMGSRTVKRIADVSKLRIYQFPQDAGPMAHPVRPHSYIKVYEKVWLFTNSVLLYAGAEVVRMYKTLLGTQGFRKGIDLYFERHDEQAVTCEDFFAAMRDANNADFANFLQWYSQAGTPVVKVVSSYNADARTFSLKFSQEIPPTPGQPTKEPTFIPVVVGLLDSSGKDITLSSVHHDGTVQTISGSSTILRVTKKEEEFVFSDIPERPVPSLFRGFSAPVRVETDLSNDDLFFLLAHDSDEFNRWEAGQVLARKLMLNLVSDFQQNKPLALNPKFVQGLGSVLSDSSLDKEFIAKAITLPGEGEIMDMMAVADPDAVHAVRKFVRKQLASELKEELLKIVENNRSTEAYVFDHSNMARRALKNTALAYLASLEDPAYMELALNEYKMATNLTDQFAALAALSQNPGKTRDDILADFYNKWQDDYLVVNKWFLLQSTSDIPGNVENVKKLLDHPAFDLRNPNKVYSLIGGFCGSPVNFHAKDGSGYKFLGDIVVQLDKLNPQVKTPKLTCVFAVTYIM | failed
12 | MARLIVNALVSVPLAEIEIGFVRSGGAGGQNVNKLATAAHLRFDIAASSLPETCKTRLLDHRDRRMTAEGIIVIKAQRFGTQEKNREDALARLRGLILQALAQRRPRKPTRPTLAAKKKRLDEKTRHGEIKRLRRRIGDLEHHHHHH | failed
13 | MARMAVTLTHVMAMHAQILKFIVTALFVVPLFLAPAEAQTSETDLLAQLQTAPESEANRLERELALIWDQSGSAAMDLLLKRGREALEDEDNARAVEHLSALTDHAPEFAEGWHARATALYRAGLYGPALDALHQALLLNPNNFNAIFGLGVMMREFGDLDRAARAFDRVLELHPHHKRAKAAKEQMAVQGLGQTL | failed
14 | MARQLDEQIAGRFPVGQRLRVLDVGMGQGTQALRLARAGHQVTGVEQDATMIAVARETLAAEPEGIRSRMRLVQSDGRDTGVHFLPGSFDVVLCHGVLMYVEDPDALLAGLARMLAPGGLLSLLVRNADALAMRPGLAGDWASALTSFDTTAYTNRLGLDVRADRLDALTSTLAGIGAPLHAWYGVRVFTDTAADGAELPADVETLLAAEERAGRTDPYRQVAALLHLCGVRGGGAP | failed
